Test results reported in IntAct's records for PubMed 32514408.

B1: TNF receptor-associated factor 3 (Homo sapiens), Q13114 (parent)
chain: MESSKKMDSPGALQTNPPLKLHTDRSAGTPVFVPEQGGYKEKFVKTVEDKYKCEKCHLVLCSPKQTECGHRFCESCMAALLSSSSPKCTACQESIVKDKVFKDNCCKREILALQIYCRNESRGCAEQLMLGHLLVHLKNDCHFEELPCVRPDCKEKVLRKDLRDHVEKACKYREATCSHCKSQVPMIALQKHEDTDCPCVVVSCPHKCSVQTLLRSELSAHLSECVNAPSTCSFKRYGCVFQGTNQQIKAHEASSAVQHVNLLKEWSNSLEKKVSLLQNESVEKNKSIQSLHNQICSFEIEIERQKEMLRNNESKILHLQRVIDSQAEKLKELDKEIRPFRQNWEEADSMKSSVESLQNRVTELESVDKSAGQVARNTGLLESQLSRHDQMLSVHDIRLADMDLRFQVLETASYNGVLIWKIRDYKRRKQEAVMGKTLSLYSQPFYTGYFGYKMCARVYLNGDGMGKGTHLSLFFVIMRGEYDALLPWPFKQKVTLMLMDQGSSRRHLGDAFKPDPNSSSFKKPTGEMNIASGCPVFVAQTVLENGTYIKDDTIFIKVIVDTSDLPDP
partner: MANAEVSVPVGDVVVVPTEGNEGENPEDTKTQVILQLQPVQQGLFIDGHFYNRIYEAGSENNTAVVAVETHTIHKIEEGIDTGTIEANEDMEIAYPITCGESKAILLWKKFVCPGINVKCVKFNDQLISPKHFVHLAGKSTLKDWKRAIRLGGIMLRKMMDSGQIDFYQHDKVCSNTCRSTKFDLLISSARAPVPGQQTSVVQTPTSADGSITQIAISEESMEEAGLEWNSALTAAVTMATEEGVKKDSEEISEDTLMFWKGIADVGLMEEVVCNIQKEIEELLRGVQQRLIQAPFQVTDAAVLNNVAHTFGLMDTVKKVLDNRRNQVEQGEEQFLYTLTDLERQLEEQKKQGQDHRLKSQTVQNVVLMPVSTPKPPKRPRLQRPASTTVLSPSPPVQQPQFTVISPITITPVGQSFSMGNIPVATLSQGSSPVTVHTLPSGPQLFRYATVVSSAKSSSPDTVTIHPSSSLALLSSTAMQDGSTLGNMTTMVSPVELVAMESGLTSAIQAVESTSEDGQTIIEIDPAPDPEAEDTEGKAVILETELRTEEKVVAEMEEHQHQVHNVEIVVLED

Variants of: B1
Details: with gmeb1_human GMEB1, Q9Y692

Row | Variant | effect of a mutation on the interaction
1 | MESSKKMDSPGALQTNPPLKLHTDRSAGTPVFVPEQGGYKEKFVKTVEDKYKAEKAHLVLCSPKQTECGHRFCESCMAALLSSSSPKCTACQESIVKDKVFKDNCCKREILALQIYCRNESRGCAEQLMLGHLLVHLKNDCHFEELPCVRPDCKEKVLRKDLRDHVEKACKYREATCSHCKSQVPMIALQKHEDTDCPCVVVSCPHKCSVQTLLRSELSAHLSECVNAPSTCSFKRYGCVFQGTNQQIKAHEASSAVQHVNLLKEWSNSLEKKVSLLQNESVEKNKSIQSLHNQICSFEIEIERQKEMLRNNESKILHLQRVIDSQAEKLKELDKEIRPFRQNWEEADSMKSSVESLQNRVTELESVDKSAGQVARNTGLLESQLSRHDQMLSVHDIRLADMDLRFQVLETASYNGVLIWKIRDYKRRKQEAVMGKTLSLYSQPFYTGYFGYKMCARVYLNGDGMGKGTHLSLFFVIMRGEYDALLPWPFKQKVTLMLMDQGSSRRHLGDAFKPDPNSSSFKKPTGEMNIASGCPVFVAQTVLENGTYIKDDTIFIKVIVDTSDLPDP [C53A;C56A] | with no effect
